# PMC9224406
# pKd: −log10 of the molar value.
# Experiments:
# [1] = target: BDNF pro-peptide V66M pro-peptide (Homo sapiens) (UniProt P23560); test: SPR; details: cited from earlier work
# [2] = target: BDNF pro-peptide pro-peptide (Homo sapiens) (UniProt P23560); test: SPR; details: cited from earlier work
# [3] = target: human proBDNF V66M variant (human); test: SAXS; hproBDNF V66M in solution at five concentrations (0.14–1.45 mg/mL), 50 mM Sodium Phosphate pH 7.0, 283 K; molecular mass from I(0) against BSA and from the Porod volume, compared with the calculated monomer mass
# Chain of BDNF (P23560 129-247): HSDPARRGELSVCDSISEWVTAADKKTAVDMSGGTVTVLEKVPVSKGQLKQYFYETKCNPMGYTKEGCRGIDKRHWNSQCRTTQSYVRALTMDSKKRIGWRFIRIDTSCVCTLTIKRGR
# Chain of BDNF pro-peptide V66M pro-peptide (Homo sapiens) (P23560 19-128 V66M): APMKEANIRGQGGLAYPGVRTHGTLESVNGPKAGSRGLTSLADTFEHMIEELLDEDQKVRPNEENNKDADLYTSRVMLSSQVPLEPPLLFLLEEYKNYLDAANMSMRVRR
# Chain of BDNF pro-peptide pro-peptide (Homo sapiens) (P23560 19-128): as the sequence (P23560 19-128 V66M) above, with M48V counted along it
Substance,pKd [1],pKd [2],stoichiometry N [3]
BDNF (from UniProt P23560),9.92,9.38,–
human proBDNF V66M variant (natural protein),–,–,2
